Measurements published in article PMC3446948, “Protection against Th17 Cells Differentiation by an Interleukin-23 Receptor Cytokine-Binding Homology Region” (PLoS ONE, 2012).

Tests used:
[1] = molecular target: T1, Human IL-23 (human, UniProt Q9NPF7 20-189; P29460 23-328); assay: ELISA; direct binding ELISA: 10 ng/well human IL-23 coated, various concentrations of IL23R-CHR added, bound IL23R-CHR detected by HRP-labelled IL23R mAb; non-linear regression; details: both partners purified
T1 construct: Interleukin-23 subunit alpha (p19), human; subunit of the bought heterodimeric cytokine; Interleukin-12 subunit beta (p40), human; also called human IL-23 complex; source: bought: R&D
T1 sequence (looked up) 1: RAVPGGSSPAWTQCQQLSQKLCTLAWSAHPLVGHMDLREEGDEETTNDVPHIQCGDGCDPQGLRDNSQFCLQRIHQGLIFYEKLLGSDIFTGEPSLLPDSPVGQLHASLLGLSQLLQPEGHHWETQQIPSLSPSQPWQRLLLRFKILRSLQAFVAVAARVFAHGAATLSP
T1 sequence (looked up) 2: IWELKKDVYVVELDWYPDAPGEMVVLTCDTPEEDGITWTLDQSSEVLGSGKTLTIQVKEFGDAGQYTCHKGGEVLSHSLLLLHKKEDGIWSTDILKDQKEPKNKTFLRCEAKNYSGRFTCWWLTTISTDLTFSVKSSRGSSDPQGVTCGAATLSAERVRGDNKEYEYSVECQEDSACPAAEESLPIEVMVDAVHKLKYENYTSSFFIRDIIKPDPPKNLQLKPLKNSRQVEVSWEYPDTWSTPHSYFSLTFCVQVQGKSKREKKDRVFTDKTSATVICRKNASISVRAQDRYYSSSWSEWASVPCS

[2] = molecular target: Mouse IL-23 (mouse) (UniProt Q9EQ14)
Mouse IL-23 (mouse), sequence (Q9EQ14 22-196, chain 1 of 2): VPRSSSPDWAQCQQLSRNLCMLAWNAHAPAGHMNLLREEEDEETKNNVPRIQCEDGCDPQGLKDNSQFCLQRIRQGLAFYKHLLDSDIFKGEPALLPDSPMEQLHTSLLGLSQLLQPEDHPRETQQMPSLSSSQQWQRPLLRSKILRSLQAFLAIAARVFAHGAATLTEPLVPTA
Mouse IL-23 (mouse), sequence (P43432 23-335, chain 2 of 2, further chain): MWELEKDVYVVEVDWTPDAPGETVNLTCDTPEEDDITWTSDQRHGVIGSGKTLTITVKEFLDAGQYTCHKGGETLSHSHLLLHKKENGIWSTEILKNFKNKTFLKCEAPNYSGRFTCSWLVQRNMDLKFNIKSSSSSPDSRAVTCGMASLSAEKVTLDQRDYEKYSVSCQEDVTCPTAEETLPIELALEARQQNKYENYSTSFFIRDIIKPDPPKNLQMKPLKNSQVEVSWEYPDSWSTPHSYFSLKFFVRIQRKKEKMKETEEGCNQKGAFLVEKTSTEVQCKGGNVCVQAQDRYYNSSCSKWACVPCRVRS

B1: Human IL-23 receptor cytokine-binding homology region (IL23R-CHR, amino acid residues 124-313) (domain or fragment)
chain: PPDIPDEVTCVIYEYSGNMTCTWNAGKLTYIDTKYVVHVKSLETEEEQQYLTSSYINISTDSLQGGKKYLVWVQAANALGMEESKQLQIHLDDIVIPSAAVISRAETINATVPKTIIYWDSQTTIEKVSCEMRYKATTNQTWNVKEFDTNFTYVQQSEFYLEPNIKYVFQVRCQETGKRYWQPWSSLFFH
modifications: Expressed in E. coli (non-glycosylated). The Trx-His6 tag was removed by enterokinase. A short vector/primer-derived N-terminal remnant remains and is omitted: printed as 'A', while the NcoI primer …
- IC50 [1]: 90 nM
- percentage of IL-17a+ cells in mouse CD4+ T cells (flow cytometry) under Th17 polarisation with IL23R-CHR 0, 5 and 25 ug/ml, 72 h; the value given is that at 25 ug/ml [2]: 4.18%
